2 molecules from PMC12489035, “RABGAP1 is a sensor that facilitates the sorting and processing of amyloid precursor protein” (The EMBO Journal, 2025) can be followed below.

Usually stoichiometry N stands for the number of molecules, sites or subunits per partner or assembly.

Assay [1] concerns the target T1, His-tagged PTB domain of RABGAP1.
T1 chain: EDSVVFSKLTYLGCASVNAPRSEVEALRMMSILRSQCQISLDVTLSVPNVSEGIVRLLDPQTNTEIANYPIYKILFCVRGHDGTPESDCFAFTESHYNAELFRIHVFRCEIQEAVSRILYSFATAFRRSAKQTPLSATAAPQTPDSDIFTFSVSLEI
Description: ITC; APP peptides titrated into about 100 μM His-PTB of RABGAP1 in 2.4 μl injections at 20 °C; 100 mM Tris pH 7.4, 300 mM NaCl, 1 mM TCEP; Nano ITC; three independent runs for the WT peptide. The settings on record: both partners purified. For orientation: ITC needs no label: the signal is the heat of the interaction.

Assay [2] concerns the target T2, GST fused to the APP cytosolic tail mutant FFE689-91AAA (UniProt P05067-4 649-695, FFE689-91AAA).
T2 construct: amyloid precursor protein (APP), cytosolic tail, residues 649-695; numbers count on: APP isoform 695; also called FFE689-9AAA; source: T7 express E. coli; clarified lysate loaded on glutathione-Sepharose 4B beads and washed
T2 chain (looked up): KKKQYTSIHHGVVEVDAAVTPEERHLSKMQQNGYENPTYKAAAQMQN
Nature of the assay: pull-down; GST-APP tail WT, tail mutants or GST only on glutathione-Sepharose beads, incubated overnight at 4 °C with pre-cleared HEK293T lysate; eluted with 1.5 M NaCl; eluates immunoblotted for the hits; N = 3. The settings on record: one partner purified. A general note: In western blotting, separated proteins are transferred to a membrane and probed.

B1: WT APP tail peptide starting from the MQQ sequence at position 677 (peptide, UniProt P05067-4 677-695, looked up)
peptide: MQQNGYENPTYKFFEQMQN
notes: amyloid precursor protein (APP), cytosolic tail from M677 (MQQ...); numbers count on: APP isoform 695; The peptide probably runs to the C-terminus of APP695 (residue 695); also called APPwt; WT APP peptide
For the molecule B1, in assay [1], the Kd is approximately 61 µM and the “stoichiometry N” value was found to be 1.

B2: RABGAP1 (natural protein)
chain: not shown
notes: also called GAPCenA; TBC1D11; source: endogenous, HEK293T lysate
Take B2: the “fold change of binding against the WT tail” value in assay [2] is approximately 3 fold.
